Measured values published in the domain aggregation screens of Martell et al. (2025).

Experiment: soluble fraction after stress (log2 fold change); higher = more stays soluble; pooled small domains, quantitative proteomics
Conditions: stress: 75 degC
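Also: 20 min heating vs room temperature control held 20 min.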

Sequence | soluble fraction (log2)
HMQGDHELSQRILSYLSEQGGSSPLTDKASPEEIYRIFRVSKKKYKQALGNLYKSKSIIILADKIQLL | -3.2
HMNLPTSGVDALTPAERRVARMAGDGQSNREIAQTLFVTRKTVEIHLTSVYRKLGIASRAELSARL | -2.68
HMQDTTLTSQILRVPSSVNINDLANVLKSLAGKNTVVAPYKAANTIIITGYAPNVRRVLSLANELIPRLDV | -1.18
HMISRDPYDAGAIKRHFSASGLFSSKELAHYLGKSVSTAKNVLSDLQQQGIVEMVGQGPATKYRFI | 0.772
HMNTEVDKVLLRSGEAYFGEVLLRNDELVMMKTQDGARFQFPVSEIKSIEKVSVADALRHINS | 0.263
HMELNGVSETAKSVYSIILNNSSTVDDIVIKTKLPAAKVMQALTELELNDAVERKSGGVYALP | 0.0577
HMTHPAHLARIGALIRSARQHEGLTQAQLAELLGTSQSAIHRIEQGGQNITLDMLTRISAALDSEIVTIG | -1.51
HMYRSGGYTGAGKDDEEAGVVHRNEFVNTADAVRNPHVKRFLDVFNVAQKDGTIRMLNTSQILERARLDA | 0.115
HMTNYNTEKIIPEEQAGKRLDVVLANIFPEFSRSRLKNWIIDGFILVDGKVLRPRDFVTGGELVSIDVIV | -0.123
HMLRTLSTSEFAEAIGISESSARRLADSGDLRIRRTKGGHRKIPAEEAIRYAREIQATVVRPDLLGLST | -0.0139
HMISENFVEAKILLTEDNRPKSLEILKDIIRQHDKVYSPLSLFLILDEDLEENKEIILEYFDLVLS | -0.327
HMEVLSKRGSTGTEVINIQKKLKNWGYYTGSVDGIYGKLTEEAVRYFQRTNGLTVDGIAGKNTLAAMGIA | -0.619
HMTIAFPSNDVDAVVGYFESRGFDRTASISTATVILQQAKIDGVKVFELIDTLQGMDKVQLSYIVTEILN | 0.0608
HMGITRQQALQQINQSASPKKILNASLGKRGSEFVWDIGYLSKSGKLNYVTYSFRSGEQLNAIKN | -1.03
HMTGKLGKIILQPKQTVYGITKKYQISESELRRLNPQLDSHLKIGDEVILPAENIKKFGGNQPVAVS | 0.268
HMQNMVYVATKDIPAGGVIDQDSVSKTAISTSIDTSLYITDDDLGKIAVVNISQGQSVFSNMVGT | 0.656
HMGGYVVVGDKDGFWSVVSTPVSKAKAEELLKDTTFPKGEKGKIVSVAEAMSHKKVIGKEYLESGGT | 0.0752
HMLQIGDEEFIENIVKQVIDENQKAVDDYKKGKEKVMAFLIGQVMKKTKGKVNSEIVEKTIKKL | -0.211
HMSSPDMSLLYSELDVKDSGQIVTILEQRNIPYEVRNNGSQIYIPSNNVQRIRLSLAQEGLPSG | 0.111
HMPVPSPAEQTATQLANIERHTGITVDGWTRAIAEAGAAKHGEIVAWLKQQGLTHGNANALAHAVRARQSG | 0.581

Sequence | soluble fraction (log2)
HMSDPDPAEQALLRQFMTRYAAYRRRGQHPAGAFRTASLEVFGQEPSGDLRDVIVDLESGLV | -0.234
HMTKQIILVHVAGKVKKPDVYPLLQGSRVADAIKAAGGAKKGVELNDINLARVLIDGEQVFVGYVPE | -2.2
HMSTPLVATLRKRIIDGHYPPGERLAEIPVAEAFGVSRTPVRLAFRTLEQEGLLEKAGKRGYAVRA | -0.164
HMLPGLGPIERAQFMLQAIPGISPTRSAALIDKFGSIAGIAQASIKDIQTIEGIGKKTATTLYEVLNAG | -0.39
HMGYGEQEQEAQKYLALHALMSQDPTLAKMYQAPNQYKLMSHVMEQNGIKNVNDYLTDPQQLP | -0.157
HMTGDNQTIGGGGFHHVAIRAHDFDASVKFYGETLGFREKIAWGEGDKRAIMMDTGDGNYIEIF | 0.0318
HMLDVFSAEQVADVLSVSKRNLETWANNGKLIPDFIHGEVALYSKKQLEQFEQFQRFFNSSWDAERLIQP | -1.54
HMRRSLIGPTVRERRRALGITQSRLAAEVGISASYLNLIEGDKRNIGGALLQRIAGALGLALD | -3.08
HMAVANEAIANINMKEVKQAIHNLPEIFKNPFLLYFDGYKYHEIAEMLDEPLGTIKSRIHFARKLLKSHI | -0.889
HMKDHKSKWMAKTELDSIAKNLSKKHAISLDYEEDGTRFYAGGQSPLGIGRLFTVFVAPRNGHWSDQLR | 0.194
HMADLPQATALADVKGDVQMQGIQFGYDPEKIIIHDLNLHARPGSLVAIVGPTGAGKTTIINLLMRFYD | -1.75
HMSTQVPDVKERSQEEARSILESAGFKVTPAVKTEDSADIAKDMVTKTDPAAGQSVPKGTTITIYVSS | 0.126
HMNMRVLSEQPNKKSYQDGNLRLKVFGASFKKSDILNEALNQARVEETGLQIPKLLEVKQIDGQWTIVTE | -0.0583
HMPKMDGLTVMEQVNQDHFVNKRPYFIVITAVGQEKITEDAFNKGANYYVMKPFNNNMLLERIKSVRK | 0.642
HMIAASPVGGIDRVLELLDARGQRVAWIEASGTEGGQRLRLGWIDAQGAERHGAWVPWSADDLLLYA | -0.739
HMKYLREEDYLPIGSIIRLDDRNFRVDHVNFMFKSVSLQDMDLTNSGQPIFRSESLPHIRELYEQQQNELV | -0.877
HMDTSISHLVGRTGEAVTDLRPAGTVMIDGELYDARATEGFIEKGEIVKAIKYQYGQLNVRRVSK | 0.00609
HMHTGLAELTDRERDVLRLIATGMTNAAIGSALAYSPSTIRADTVSIYRKLEVRGRAEAAAVAVAAGLTQP | -1.72
HMRQFEPVEGYNPYADKNELHGYEYWGAKFADSRSPEETAWIKQQIDDENEDRRFISEAGLA | 0.0889
